Assay: Thermal stability by differential scanning calorimetry (DSC)
Type: physicochemical
Settings: 0.4 mg/mL in PBS
Method: The thermal stability of the humanized antibody variants was assessed by differential scanning calorimetry (DSC) as described below.
400 μL of purified samples primarily at concentrations of 0.4 mg/mL in PBS were used for DSC analysis with a VP-Capillary DSC (Malvern Panalytical Inc., Westborough, MA). At the start of each DSC run, 5 buffer blank injections were performed to stabilize the baseline, and a buffer injection was placed before each sample injection for referencing. Each sample was scanned from 20° C. to 100° C. at a 60° C./hr rate, with low feedback, 8 sec filter, 3 min pre-scan thermostat, and 70 psi nitrogen pressure. The resulting thermograms were referenced and analyzed using Origin 7 software (OriginLab Corporation, Northampton, MA) to determine melting temperature (Tm) as an indicator of thermal stability.

Molecule	Fab Tm
v29453: "Representative humanized antibody variants ... of the mouse antibody" that specifically binds hNaPi2b (antibody, V domains shown, v29449, v29453, v29457 H4; v29453, v29454, v29455, v29456 L2) VH: QVQLVQSGAEVKKPGASVKMSCKASGFTFTSYNVHWVRQAPGQGLEWIAAISPGNGDLSYAQKFQGRATLTVDRSTSTAYMELSSLRSEDTAVYYCARGRTGMGAVDYWGQGTLVTVSS VL: DVQMTQSPSSLSASVGDRVTITCRASQDVYSYLNWYQQKPGKAVKLLIYYTSRLQSGVPSRFSGSGSGTDYTLTISSLQPEDFATYYCQQYNIFPWTFGQGTKLEIK	78.9 °C
v29454: "Representative humanized antibody variants ... of the mouse antibody" that specifically binds hNaPi2b (antibody, V domains shown, v29450, v29454, v29458 H3; v29453, v29454, v29455, v29456 L2) VH: QVQLVQSGAEVKKPGASVKMSCKASGFTFTSYNVHWVRQAPGQGLEWIAAISPGNGDLSYAQKFQGRATLTVDTSTSTAYMELSSLRSEDTAVYYCARGRTGMGAVDYWGQGTLVTVSS VL: DVQMTQSPSSLSASVGDRVTITCRASQDVYSYLNWYQQKPGKAVKLLIYYTSRLQSGVPSRFSGSGSGTDYTLTISSLQPEDFATYYCQQYNIFPWTFGQGTKLEIK	79.7 °C
v29455: "Representative humanized antibody variants ... of the mouse antibody" that specifically binds hNaPi2b (antibody, V domains shown, v29451, v29455, v29459 H2; v29453, v29454, v29455, v29456 L2) VH: QVQLVQSGAEVKKPGASVKVSCKASGFTFTSYNVHWVRQAPGQGLEWIAAISPGNGDLSYAQKFQGRVTMTVDTSTSTVYMELSSLRSEDTAVYYCARGRTGMGAVDYWGQGTLVTVSS VL: DVQMTQSPSSLSASVGDRVTITCRASQDVYSYLNWYQQKPGKAVKLLIYYTSRLQSGVPSRFSGSGSGTDYTLTISSLQPEDFATYYCQQYNIFPWTFGQGTKLEIK	81.5 °C
v29457: "Representative humanized antibody variants ... of the mouse antibody" that specifically binds hNaPi2b (antibody, V domains shown, v29449, v29453, v29457 H4; v29457, v29458, v29459, v29460 L1) VH: QVQLVQSGAEVKKPGASVKMSCKASGFTFTSYNVHWVRQAPGQGLEWIAAISPGNGDLSYAQKFQGRATLTVDRSTSTAYMELSSLRSEDTAVYYCARGRTGMGAVDYWGQGTLVTVSS VL: DIQMTQSPSSLSASVGDRVTITCRASQDVYSYLNWYQQKPGKAPKLLIYYTSRLQSGVPSRFSGSGSGTDFTLTISSLQPEDFATYYCQQYNIFPWTFGQGTKLEIK	80.5 °C
v29458: "Representative humanized antibody variants ... of the mouse antibody" that specifically binds hNaPi2b (antibody, V domains shown, v29450, v29454, v29458 H3; v29457, v29458, v29459, v29460 L1) VH: QVQLVQSGAEVKKPGASVKMSCKASGFTFTSYNVHWVRQAPGQGLEWIAAISPGNGDLSYAQKFQGRATLTVDTSTSTAYMELSSLRSEDTAVYYCARGRTGMGAVDYWGQGTLVTVSS VL: DIQMTQSPSSLSASVGDRVTITCRASQDVYSYLNWYQQKPGKAPKLLIYYTSRLQSGVPSRFSGSGSGTDFTLTISSLQPEDFATYYCQQYNIFPWTFGQGTKLEIK	81.6 °C
v29459: "Representative humanized antibody variants ... of the mouse antibody" that specifically binds hNaPi2b (antibody, V domains shown, v29451, v29455, v29459 H2; v29457, v29458, v29459, v29460 L1) VH: QVQLVQSGAEVKKPGASVKVSCKASGFTFTSYNVHWVRQAPGQGLEWIAAISPGNGDLSYAQKFQGRVTMTVDTSTSTVYMELSSLRSEDTAVYYCARGRTGMGAVDYWGQGTLVTVSS VL: DIQMTQSPSSLSASVGDRVTITCRASQDVYSYLNWYQQKPGKAPKLLIYYTSRLQSGVPSRFSGSGSGTDFTLTISSLQPEDFATYYCQQYNIFPWTFGQGTKLEIK	83.1 °C
v29460: "Representative humanized antibody variants ... of the mouse antibody" that specifically binds hNaPi2b (antibody, V domains shown, v29452, v29460 H1; v29457, v29458, v29459, v29460 L1) VH: QVQLVQSGAEVKKPGASVKVSCKASGFTFTSYNVHWVRQAPGQGLEWMGAISPGNGDLSYAQKFQGRVTMTRDTSTSTVYMELSSLRSEDTAVYYCARGRTGMGAVDYWGQGTLVTVSS VL: DIQMTQSPSSLSASVGDRVTITCRASQDVYSYLNWYQQKPGKAPKLLIYYTSRLQSGVPSRFSGSGSGTDFTLTISSLQPEDFATYYCQQYNIFPWTFGQGTKLEIK	80.3 °C
v29449: "Representative humanized antibody variants ... of the mouse antibody" that specifically binds hNaPi2b (antibody, V domains shown, v29449, v29453, v29457 H4; v29449 L3) VH: QVQLVQSGAEVKKPGASVKMSCKASGFTFTSYNVHWVRQAPGQGLEWIAAISPGNGDLSYAQKFQGRATLTVDRSTSTAYMELSSLRSEDTAVYYCARGRTGMGAVDYWGQGTLVTVSS VL: DVQMTQSPSSLSASVGDRVTITCRASQDVYSYLNWYQQKPGKAVKLLIYYTSRLQSGVPSRFSGSGSGTDYTLTISSLQPEDIATYYCQQYNIFPWTFGQGTKLEIK	80.0 °C
